Laboratory results as given in the Human Domainome abundance scans (Beltran et al. 2025).
± gives the uncertainty stated by the source.

B1: Proto-oncogene vav, residues 782 to 842; numbered along this chain, P15498 (parent)
chain: KYFGTAKARYDFCARDRSELSLKEGDIIKILNKKGQQGWWRGEIYGRVGWFPANYVEEDYS

Variants of: B1
Experiment: abundance fitness (aPCA) (normalised: wild type 0, dead -1); higher = more abundant; growth selection in yeast, the domain comes from the species named
Details: Homo sapiens

G4L and G4N are within error of each other in abundance fitness: -0.247 ± 0.071 for the first, -0.166 ± 0.15 for the second.

G4C and G4T are within error of each other in abundance fitness: -0.274 ± 0.14 for the first, -0.089 ± 0.11 for the second.

G4W and G4Y are within error of each other in abundance fitness: -0.169 ± 0.11 for the first, -0.213 ± 0.15 for the second.

G4M and G4H are within error of each other in abundance fitness: -0.164 ± 0.12 for the first, -0.292 ± 0.19 for the second.

G4I and G4F are within error of each other in abundance fitness: -0.238 ± 0.19 for the first, -0.348 ± 0.17 for the second.

G4A and G4E are within error of each other in abundance fitness: -0.163 ± 0.081 for the first, -0.298 ± 0.11 for the second.

G4R and G4S are within error of each other in abundance fitness: -0.183 ± 0.068 for the first, -0.111 ± 0.058 for the second.

G4D and G4P are within error of each other in abundance fitness: -0.083 ± 0.075 for the first, 0.011 ± 0.099 for the second.

G4Q and D11G are within error of each other in abundance fitness: -0.151 ± 0.12 for the first, -0.258 ± 0.07 for the second.

Going from D11T to D11L, the abundance fitness falls from -0.316 ± 0.1 to -0.607 ± 0.074.

First: D11A
Second: D11W
The abundance fitness of the first is higher: -0.103 ± 0.08 for the first, -0.715 ± 0.16 for the second.

D11H and D11M are within error of each other in abundance fitness: -0.503 ± 0.14 for the first, -0.35 ± 0.091 for the second.

D11K and D11Y are within error of each other in abundance fitness: -0.362 ± 0.12 for the first, -0.441 ± 0.28 for the second.

Compared with D11V, D11S is higher in abundance fitness: -0.587 ± 0.095 for the first, -0.251 ± 0.084 for the second.

D11I and D11E are within error of each other in abundance fitness: -0.693 ± 0.49 for the first, -0.159 ± 0.098 for the second.

D11Q and D11P are within error of each other in abundance fitness: -0.363 ± 0.14 for the first, -0.284 ± 0.1 for the second.

Compared with D11N, D11F is lower in abundance fitness: 0.086 ± 0.07 for the first, -0.901 ± 0.28 for the second.

Going from D11C to F12A, the abundance fitness falls from -0.264 ± 0.15 to -0.537 ± 0.12.

F12C and K1W are within error of each other in abundance fitness: -0.83 ± 0.37 for the first, -0.474 ± 0.12 for the second.

K1Y and K1S are within error of each other in abundance fitness: -0.261 ± 0.25 for the first, -0.198 ± 0.13 for the second.

K1V and K1T are within error of each other in abundance fitness: -0.241 ± 0.12 for the first, -0.27 ± 0.12 for the second.

Going from Y10Q to Y10W, the abundance fitness falls from 0.107 ± 0.11 to -0.116 ± 0.087.

Y10D and Y10G are within error of each other in abundance fitness: -0.305 ± 0.11 for the first, -0.177 ± 0.05 for the second.

Y10K and Y10M are within error of each other in abundance fitness: 0.047 ± 0.11 for the first, 0.098 ± 0.11 for the second.

Y10V and Y10I are within error of each other in abundance fitness: -0.184 ± 0.068 for the first, -0.115 ± 0.1 for the second.

Going from Y10N to Y10P, the abundance fitness falls from -0.393 ± 0.24 to -0.847 ± 0.18.

Compared with Y10H, Y10C is lower in abundance fitness: 0.079 ± 0.13 for the first, -0.338 ± 0.1 for the second.

Y10A and Y10S are within error of each other in abundance fitness: 0.029 ± 0.064 for the first, 0.044 ± 0.059 for the second.

Y10E and Y10L are within error of each other in abundance fitness: -0.13 ± 0.099 for the first, -0.122 ± 0.07 for the second.

T5R and T5L are within error of each other in abundance fitness: -0.209 ± 0.059 for the first, -0.099 ± 0.069 for the second.

Going from T5P to T5A, the abundance fitness rises from -0.401 ± 0.12 to -0.084 ± 0.067.

T5S and T5H are within error of each other in abundance fitness: -0.179 ± 0.077 for the first, -0.094 ± 0.12 for the second.

T5Y and T5C are within error of each other in abundance fitness: -0.064 ± 0.13 for the first, -0.152 ± 0.11 for the second.

T5E and T5W are within error of each other in abundance fitness: -0.25 ± 0.11 for the first, -0.178 ± 0.088 for the second.

T5V and T5M are within error of each other in abundance fitness: -0.159 ± 0.065 for the first, -0.209 ± 0.096 for the second.

First: T5F
Second: T5K
The abundance fitness of the first is higher: 0.168 ± 0.13 for the first, -0.468 ± 0.14 for the second.

T5I and R9F are within error of each other in abundance fitness: -0.248 ± 0.14 for the first, 0.05 ± 0.18 for the second.

R9W and R9Y are within error of each other in abundance fitness: -0.737 ± 0.2 for the first, -0.821 ± 0.27 for the second.

First: R9N
Second: R9G
The abundance fitness of the first is higher: -0.282 ± 0.15 for the first, -0.75 ± 0.12 for the second.

Compared with R9H, R9T is higher in abundance fitness: -0.505 ± 0.22 for the first, -0.086 ± 0.096 for the second.

Compared with R9I, R9P is lower in abundance fitness: -0.296 ± 0.13 for the first, -0.972 ± 0.3 for the second.

First: R9M
Second: R9E
The abundance fitness of the first is higher: -0.027 ± 0.081 for the first, -0.614 ± 0.25 for the second.

Going from R9K to R9C, the abundance fitness falls from 0.072 ± 0.097 to -0.356 ± 0.11.

First: R9S
Second: Y2T
The abundance fitness of the first is lower: -0.34 ± 0.088 for the first, -0.138 ± 0.093 for the second.

Y2C and Y2E are within error of each other in abundance fitness: -0.229 ± 0.1 for the first, -0.238 ± 0.18 for the second.

Y2K and Y2P are within error of each other in abundance fitness: -0.392 ± 0.23 for the first, -0.212 ± 0.1 for the second.

Y2N and Y2S are within error of each other in abundance fitness: 0.228 ± 0.19 for the first, -0.033 ± 0.078 for the second.

Y2I and Y2F are within error of each other in abundance fitness: -0.097 ± 0.27 for the first, 0.061 ± 0.11 for the second.

Y2H and Y2V are within error of each other in abundance fitness: -0.138 ± 0.1 for the first, -0.247 ± 0.087 for the second.

Y2G and Y2R are within error of each other in abundance fitness: -0.15 ± 0.093 for the first, -0.226 ± 0.083 for the second.

Y2L and Y2W are within error of each other in abundance fitness: -0.323 ± 0.065 for the first, -0.36 ± 0.12 for the second.

Y2D and Y2M are within error of each other in abundance fitness: 0.021 ± 0.14 for the first, -0.082 ± 0.12 for the second.

Compared with K7G, K7C is higher in abundance fitness: -0.629 ± 0.13 for the first, -0.04 ± 0.14 for the second.

First: K7Q
Second: K7P
The abundance fitness of the first is higher: -0.093 ± 0.094 for the first, -0.97 ± 0.29 for the second.

K7E and K7N are within error of each other in abundance fitness: -0.511 ± 0.12 for the first, -0.797 ± 0.42 for the second.

K7S and K7I are within error of each other in abundance fitness: -0.381 ± 0.089 for the first, -0.232 ± 0.17 for the second.

K7W and K7A are within error of each other in abundance fitness: -0.407 ± 0.099 for the first, -0.475 ± 0.1 for the second.

K7M and K7H are within error of each other in abundance fitness: 0.006 ± 0.11 for the first, -0.233 ± 0.21 for the second.

Going from K7L to K7D, the abundance fitness falls from -0.191 ± 0.058 to -0.766 ± 0.39.

K7Y and K7V are within error of each other in abundance fitness: -0.133 ± 0.16 for the first, -0.152 ± 0.083 for the second.

A6T and A6H are within error of each other in abundance fitness: -0.883 ± 0.14 for the first, -0.677 ± 0.13 for the second.

Compared with A6C, A6Y is lower in abundance fitness: -0.115 ± 0.068 for the first, -0.264 ± 0.069 for the second.

A6K and A6S are within error of each other in abundance fitness: -0.725 ± 0.24 for the first, -0.654 ± 0.073 for the second.

A6P and A6E are within error of each other in abundance fitness: -0.832 ± 0.2 for the first, -0.904 ± 0.24 for the second.

A6I and A6D are within error of each other in abundance fitness: -0.852 ± 0.13 for the first, -0.679 ± 0.12 for the second.

A6N and A6F are within error of each other in abundance fitness: -0.905 ± 0.15 for the first, -0.694 ± 0.11 for the second.

First: A6M
Second: A6V
The abundance fitness of the first is lower: -0.733 ± 0.19 for the first, -0.214 ± 0.054 for the second.

First: F3H
Second: F3W
The abundance fitness of the first is lower: -0.396 ± 0.13 for the first, -0.166 ± 0.083 for the second.

Compared with F3V, F3S is lower in abundance fitness: -0.029 ± 0.068 for the first, -0.167 ± 0.057 for the second.

First: F3N
Second: F3I
The abundance fitness of the first is lower: -0.173 ± 0.097 for the first, 0.058 ± 0.094 for the second.

F3K and F3L are within error of each other in abundance fitness: -0.103 ± 0.12 for the first, 0.027 ± 0.057 for the second.

F3C and F3D are within error of each other in abundance fitness: -0.105 ± 0.086 for the first, -0.274 ± 0.13 for the second.

F3Y and F3P are within error of each other in abundance fitness: -0.009 ± 0.14 for the first, -0.232 ± 0.09 for the second.

F3E and F3T are within error of each other in abundance fitness: -0.192 ± 0.17 for the first, -0.063 ± 0.087 for the second.

F3M and F3R are within error of each other in abundance fitness: -0.054 ± 0.087 for the first, -0.145 ± 0.059 for the second.

Going from F3G to A8G, the abundance fitness falls from -0.268 ± 0.09 to -0.953 ± 0.11.

A8L and A8T are within error of each other in abundance fitness: -0.731 ± 0.14 for the first, -0.756 ± 0.19 for the second.

A8Y and A8P are within error of each other in abundance fitness: -0.708 ± 0.38 for the first, -0.606 ± 0.13 for the second.

Going from A8I to A8R, the abundance fitness falls from -0.535 ± 0.23 to -0.903 ± 0.12.

A8H and A8E are within error of each other in abundance fitness: -0.62 ± 0.21 for the first, -0.745 ± 0.14 for the second.

Going from A8V to A8D, the abundance fitness falls from -0.035 ± 0.069 to -0.864 ± 0.38.

A8F and A8Q are within error of each other in abundance fitness: -0.785 ± 0.26 for the first, -0.956 ± 0.35 for the second.

A8C and A8W are within error of each other in abundance fitness: -0.582 ± 0.2 for the first, -1.04 ± 0.32 for the second.

A8M showed an abundance fitness of -0.727 ± 0.26.
